Source: patent US20150376265A1 (Genentech, published 2015)
Several values for one entry are separate records, joined by “and”; a condition that tells them apart may be missing. Equal values may be shown once. Read-outs that look alike come from different tables or passages of the source.

What was measured:
Assay in all cases: cell-based or functional assay
[1] = target: T1, HCMV gH on virions of strain VR1814 (HCMV, UniProt P12824 24-743)
T1 sequence: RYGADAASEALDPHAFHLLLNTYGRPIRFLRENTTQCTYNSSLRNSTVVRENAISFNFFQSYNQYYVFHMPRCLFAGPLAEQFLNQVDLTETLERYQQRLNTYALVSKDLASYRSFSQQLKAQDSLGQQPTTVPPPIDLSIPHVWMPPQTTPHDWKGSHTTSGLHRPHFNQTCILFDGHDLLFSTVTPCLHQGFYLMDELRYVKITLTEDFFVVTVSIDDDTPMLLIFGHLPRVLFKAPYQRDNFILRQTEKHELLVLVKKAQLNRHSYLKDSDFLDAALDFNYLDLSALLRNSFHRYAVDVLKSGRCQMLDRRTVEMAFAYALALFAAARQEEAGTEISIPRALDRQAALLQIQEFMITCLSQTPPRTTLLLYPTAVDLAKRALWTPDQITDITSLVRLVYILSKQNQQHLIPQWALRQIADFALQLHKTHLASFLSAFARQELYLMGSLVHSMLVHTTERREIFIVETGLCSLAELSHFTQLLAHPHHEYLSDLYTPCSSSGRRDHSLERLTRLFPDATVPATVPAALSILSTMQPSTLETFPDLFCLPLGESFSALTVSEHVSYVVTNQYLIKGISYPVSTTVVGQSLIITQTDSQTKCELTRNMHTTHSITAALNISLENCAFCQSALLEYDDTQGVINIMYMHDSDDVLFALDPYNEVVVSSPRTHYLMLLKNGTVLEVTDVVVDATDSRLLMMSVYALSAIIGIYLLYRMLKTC

[2] = target: T1, HCMV gH on virions of strain VR1814; remark: listed apart in the source
[3] = target: T1, HCMV gH on virions of strain VR1814; remark: listed apart in the source
[4] = target: T1, HCMV gH on virions of strain VR1814; remark: listed apart in the source
[5] = target: T1, HCMV gH on virions of strain VR1814; remark: listed apart in the source
[6] = target: T1, HCMV gH on virions of strain VR1814; remark: listed apart in the source

B1: HB1 (D53N/T55R) (antibody, V domains shown)
VH: EEQVLESGGGLVKPGGSLRLSCAASGFTFSPYSVFWVRQAPGKGLEWVSSINSNSRYKYYADSVKGRFTISRDNAENSIFLQMNSLRAEDTAVYYCARDRSYYAFSSGSLSDYYYGLDVWGQGTLVTVSS
VL: DIVMTQSPLSLSVTPGEPASISCRSSQSLLHTNGYNYLDWYVQKPGQSPQLLIYLASNRASGVPDRFSGSGSGTDFTLKISRVETEDVGVYYCMQALQIPRTFGQGTKVEIK
EC50 of HB1 in the presence of hu8G8 at .000128 µg/ml [1]: 0.041 µg/mL | EC50 of HB1 in the presence of hu8G8 at .00064 µg/ml [1]: 0.043 µg/mL | EC50 of HB1 in the presence of hu8G8 at .0032 µg/ml [1]: 0.035 µg/mL | EC50 of HB1 with hu8G8 at 0 µg/ml [1]: 0.03 µg/mL | EC50 on epithelial cells, HB1 alone [2]: 0.063 µl/ml | HB1 EC50, neutralisation of hu8G8 - mutant virus 1 (UL131 Q47K, gH unchanged) [3]: 0.18 µg/mL | HB1 EC50, neutralisation of hu8G8 - mutant virus 2 (UL131 K51E, gH unchanged) [3]: 0.07 µg/mL | HB1 EC50, neutralisation of hu8G8 - mutant virus 3 (UL131 D46N, gH unchanged) [3]: 0.06 µg/mL | HB1 EC50, neutralisation of the No Ab control virus [3]: 0.22 µg/mL | HB1 EC50, neutralisation of the No Ab control virus [4]: 0.04 µg/mL | EC50, block of viral entry into fibroblasts [5]: 0.11 µg/ml and 0.7 nM | Epithelial EC50 (first pair of columns), neutralisation [6]: 0.05 µg/mL | Epithelial EC50 (second pair of columns), neutralisation [6]: 0.03 µg/mL | Fibroblast EC50, neutralisation [6]: 0.11 µg/mL | MDM EC50, neutralisation [6]: 0.03 µg/mL

B2: HB1 Fab fragment, H2-D53N/T55R (HB1) (Fab, V domains shown)
VH: EEQVLESGGGLVKPGGSLRLSCAASGFTFSPYSVFWVRQAPGKGLEWVSSINSNSRYKYYADSVKGRFTISRDNAENSIFLQMNSLRAEDTAVYYCARDRSYYAFSSGSLSDYYYGLDVWGQGTLVTVSS
VL: DIVMTQSPLSLSVTPGEPASISCRSSQSLLHTNGYNYLDWYVQKPGQSPQLLIYLASNRASGVPDRFSGSGSGTDFTLKISRVETEDVGVYYCMQALQIPRTFGQGTKVEIK
EC50, inhibition of HCMV entry into ARPE-19 cells, Fab fragments from E. coli [5]: 0.15 nM
